In paper PMC3956929:

Columns and labels:
[1] = molecular target: GAL4 DNA-binding domain-fused Bombyx mori Ago3 (pDBD-Ago3) (Bombyx mori) (UniProt A9ZSZ2); test: two-hybrid; insect two-hybrid (I2H) in BmN4 cells: GAL4 DBD bait, p65 AD prey, 4xUAS-TATA-Luc reporter, luciferase at 72 h post-transfection, relative to the pUC18 control prey; also in BmN4-SID1 cells 72 h after dsRNA against HP1a, HP1b, Ago3, Siwi, putative piRNA-related genes or GFP (control)
[2] = molecular target: GAL4 DNA-binding domain-fused Bombyx mori Siwi (pDBD-Siwi) (Bombyx mori) (UniProt A8D8P8); test: as above
Chain of UniProt A8D8P8 (A8D8P8 whole entry, the tested form may be a part): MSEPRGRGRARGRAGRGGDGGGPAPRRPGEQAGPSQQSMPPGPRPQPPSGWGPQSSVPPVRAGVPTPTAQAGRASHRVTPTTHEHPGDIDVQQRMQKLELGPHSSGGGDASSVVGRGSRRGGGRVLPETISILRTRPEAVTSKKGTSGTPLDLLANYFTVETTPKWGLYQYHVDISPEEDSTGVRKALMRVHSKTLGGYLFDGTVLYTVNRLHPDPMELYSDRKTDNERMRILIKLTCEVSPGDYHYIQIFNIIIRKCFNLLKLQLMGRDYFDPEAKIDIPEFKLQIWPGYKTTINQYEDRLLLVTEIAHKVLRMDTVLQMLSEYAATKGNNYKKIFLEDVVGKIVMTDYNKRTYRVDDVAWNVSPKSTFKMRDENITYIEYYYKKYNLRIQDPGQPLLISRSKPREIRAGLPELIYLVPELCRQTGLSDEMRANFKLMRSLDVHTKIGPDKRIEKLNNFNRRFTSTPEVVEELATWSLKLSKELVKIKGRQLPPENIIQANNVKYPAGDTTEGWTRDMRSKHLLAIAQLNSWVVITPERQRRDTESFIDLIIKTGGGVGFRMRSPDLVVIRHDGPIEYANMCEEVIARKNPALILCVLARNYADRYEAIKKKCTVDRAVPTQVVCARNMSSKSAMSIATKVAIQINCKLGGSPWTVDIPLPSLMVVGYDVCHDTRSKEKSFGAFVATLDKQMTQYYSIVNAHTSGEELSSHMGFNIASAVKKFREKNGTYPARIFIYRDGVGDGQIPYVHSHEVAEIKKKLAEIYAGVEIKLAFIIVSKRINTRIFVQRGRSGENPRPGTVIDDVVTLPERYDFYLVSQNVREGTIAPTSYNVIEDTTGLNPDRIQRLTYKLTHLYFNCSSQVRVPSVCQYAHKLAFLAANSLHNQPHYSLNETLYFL

Chain of UniProt A9ZSZ2 (A9ZSZ2 whole entry, the tested form may be a part): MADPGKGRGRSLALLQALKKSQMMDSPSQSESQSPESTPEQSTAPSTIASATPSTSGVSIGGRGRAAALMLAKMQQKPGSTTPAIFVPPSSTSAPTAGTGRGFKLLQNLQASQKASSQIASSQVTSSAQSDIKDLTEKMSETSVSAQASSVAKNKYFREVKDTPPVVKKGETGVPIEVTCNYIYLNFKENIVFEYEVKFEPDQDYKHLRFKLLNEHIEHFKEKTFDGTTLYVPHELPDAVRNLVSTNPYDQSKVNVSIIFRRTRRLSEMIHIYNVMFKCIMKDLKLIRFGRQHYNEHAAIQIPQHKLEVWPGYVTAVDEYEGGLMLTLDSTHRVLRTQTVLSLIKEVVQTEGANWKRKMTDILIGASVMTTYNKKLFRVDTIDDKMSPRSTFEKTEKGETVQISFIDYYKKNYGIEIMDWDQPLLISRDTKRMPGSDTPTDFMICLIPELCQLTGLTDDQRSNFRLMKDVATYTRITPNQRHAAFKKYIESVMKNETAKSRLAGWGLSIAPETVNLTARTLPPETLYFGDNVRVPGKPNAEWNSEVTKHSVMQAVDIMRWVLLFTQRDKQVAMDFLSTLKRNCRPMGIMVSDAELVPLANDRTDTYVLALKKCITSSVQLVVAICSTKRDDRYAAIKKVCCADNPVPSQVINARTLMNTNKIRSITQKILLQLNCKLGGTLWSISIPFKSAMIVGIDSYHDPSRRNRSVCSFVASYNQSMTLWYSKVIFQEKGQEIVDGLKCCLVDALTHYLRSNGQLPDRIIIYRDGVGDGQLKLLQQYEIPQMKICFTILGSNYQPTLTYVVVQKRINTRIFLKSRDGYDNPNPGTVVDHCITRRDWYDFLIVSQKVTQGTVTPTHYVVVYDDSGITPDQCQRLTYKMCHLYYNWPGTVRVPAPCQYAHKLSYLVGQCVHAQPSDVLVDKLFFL

fold increase of reporter activity over the pUC18 control [1]: > 10 fold
fold increase of reporter activity over the pUC18 control [2]: > 10 fold
Substance: p65 activation domain-fused Bombyx mori HP1a (pAD-HP1a) (natural protein)
